Measured values published in patent US6465220B1, “Glycosylation using GalNac-T4 transferase” (GlycoZym ApS, priority 1998, dated 2002).

Substrate: C[C@H](NC(=O)[C@H](C)NC(=O)[C@@H](NC(=O)[C@@H](NC(=O)[C@H](CCC(=O)O)NC(=O)[C@@H]1CCCN1C(=O)[C@@H]1CCCN1C(=O)[C@H](C)NC(=O)[C@H](CO)NC(=O)[C@H](CO)NC(=O)[C@H](CO)NC(=O)[C@@H]1CCCN1C(=O)[C@@H]1CCCN1C(=O)[C@H](C)NC(=O)[C@@H]1CCCN1C(=O)[C@@H](NC(=O)[C@@H](NC(=O)[C@H](C)NC(=O)[C@H](CO)NC(=O)[C@@H]1CCCN1C(=O)[C@@H](NC(=O)[C@@H]1CCCN1C(=O)[C@@H]1CCCN1C(=O)[C@@H](N)CS)[C@@H](C)O)[C@@H](C)O)[C@@H](C)O)[C@@H](C)O)[C@@H](C)O)C(=O)O
Assay: GalNAc-transferase assay with purified recombinant GalNAc-T1
Assay type: biochemical, human
Conditions: other: acceptor substrate; pH 7.5
Experimental: The following examples are provided to illustrate certain preferred embodiments of the invention, and should be considered as illustration and not as limitation. In the examples, GalNAc-transferase assays were performed in 50 μl total reaction mixtures containing 25 mM cacodylate (pH 7.5), 10 mM MnCl2, 0.1-0.25% Triton X-100, 150-200 μM UDP-[^14C]-GalNAc (4,000 cpm/nmole) (Amersham) and 0.06-1 mM acceptor peptides. Peptides were either synthesized or obtained from Carlbiotech (Copenhagen), or Neosystems (Strasbourg), and quality was ascertained by amino acid analysis and mass spectrometry. Peptides Muc-1a, Muc-1b, and TAP24, were derived from the tandem repeat of human MUC1, Gendler et al., J. Biol. Chem. 265:15286 (1990), and Muc2, Muc5AC, and Muc7 from the tandem repeats of MUC2, MUC5AC, and MUC7, respectively. Gum et al., J. Biol. Chem. 264:6480 (1989); Porchet et al., Biochem. Soc. Trans. 23:800 (1995); Bobek et al., J. Biol. Chem. 268:20563 (1993). GalNAc4TAP24 was produced by in vitro glycosylation using GalNAc-T2 as described in Wandall et al., J. Biol. Chem. 272:23503 (1997). Products were quantified by scintillation counting after chromatography on Dowex-1, octadecyl silica cartridges (Bakerbond), or HPLC (PC3.2/3 or mRPC C2/C18 SC2.1/10 Pharmacia, Smart System). Products produced by in vitro glycosylation were in most cases also confirmed by mass spectrometry. […]

B1: GalNAc-T1 (Homo sapiens) (protein)
chain: GLPAGDVLEPVQKPHEGPGEMGKPVVIPKEDQEKMKEMFKINQFNLMASEMIALNRSLPDVRLEGCKTKVYPDNLPTTSVVIVFHNEAWSTLLRTVHSVINRSPRHMIEEIVLVDDASERDFLKRPLESYVKKLKVPVHVIRMEQRSGLIRARLKGAAVSKGQVITFLDAHCECTVGWLEPLLARIKHDRRTVVCPIIDVISDDTFEYMAGSDMTYGGFNWKLNFRWYPVPQREMDRRKGDRTLPVRTPTMAGGLFSIDRDYFQEIGTYDAGMDIWGGENLEISFRIWQCGGTLEIVTCSHVGHVFRKATPYTFPGGTGQIINKNNRRLAEVWMDEFKNFFYIISPGVTKVDYGDISSRVGLRHKLQCKPFSWYLENIYPDSQIPRHYFSLGEIRNVETNQCLDNMARKENEKVGIFNCHGMGGNQVFSYTANKEIRTDDLCLDVSKLNGPVTMLKCHHLKGNQLWEYDPVKLTLQHVNSNQCLDKATEEDSQVPSIRDCNGSRSQQWLLRNVTLPEIF
notes: Control constructs pAcGP67-GalNAc-T1-sol, pAcGP67-GalNAc-T2-sol, pAcGP67-GalNAc-T3-sol, and pAcGP67-O^2-sol were prepared as previously described; made in house; host or cells: insect cells (baculovirus, pAcGP67)
Km: 40 µM | Vmax: 0.76 nmol/min/µg
